Each block holds one binder with its values, some of them ahead of it.
How the values were obtained:
[1] = biological target: T1, biotinylated AviTag-haBiP(28-635)^T229A-V461F (Chinese hamster, UniProt G3I8R9 28-635, T229A | V461F, biotin on the AviTag); test: BLI; biotinylated BiP^T229A-V461F(28-635) immobilised on streptavidin biosensors and pre-saturated with ATP (2 mM); FICD His363Ala variants at 250 nM, without or with nucleotide (ATP 8 mM, ADP 2 mM); HKM plus 0.05% Triton X-100, 30 °C; details: both partners purified
T1 construct: Chinese hamster BiP (haBiP), aa 28-635; the assay tells the nucleotide state; also called BiP^T229A-V461F:Apo; BiP:ATP; not shown: GST, N-terminal, cleaved; AviTag, N-terminal, kept
T1 sequence (G3I8R9 28-635 T229A/V461F): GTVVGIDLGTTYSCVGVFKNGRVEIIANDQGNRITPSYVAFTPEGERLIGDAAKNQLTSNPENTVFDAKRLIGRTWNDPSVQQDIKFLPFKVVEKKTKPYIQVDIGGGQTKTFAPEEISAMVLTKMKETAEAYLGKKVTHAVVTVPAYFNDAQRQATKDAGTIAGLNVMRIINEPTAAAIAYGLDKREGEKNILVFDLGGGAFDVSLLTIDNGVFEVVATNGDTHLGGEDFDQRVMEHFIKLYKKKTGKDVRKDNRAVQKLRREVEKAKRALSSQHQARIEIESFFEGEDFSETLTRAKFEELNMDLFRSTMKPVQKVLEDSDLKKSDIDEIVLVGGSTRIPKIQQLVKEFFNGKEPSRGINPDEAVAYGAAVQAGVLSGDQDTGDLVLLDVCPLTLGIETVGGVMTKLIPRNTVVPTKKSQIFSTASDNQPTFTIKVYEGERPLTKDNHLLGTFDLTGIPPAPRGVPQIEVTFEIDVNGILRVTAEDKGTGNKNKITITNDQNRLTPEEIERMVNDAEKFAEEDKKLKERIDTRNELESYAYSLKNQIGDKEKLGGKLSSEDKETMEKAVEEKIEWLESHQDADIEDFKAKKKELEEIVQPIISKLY

[2] = biological target: T2, biotinylated AviTag-haBiP^V461F(19-654), AMPylated (Chinese hamster, UniProt G3I8R9 19-654, V461F, AMP on Thr518 (AMPylation); biotin on the AviTag); test: BLI; biotinylated AMPylated or unmodified BiP immobilised on streptavidin biosensors; FICD His363Ala variants in solution at 250 nM; HKM plus 0.05% Triton X-100, 30 °C (Figure S2G); details: both partners purified
T2 construct: Chinese hamster BiP (haBiP), aa 19-654; also called BiP-AMP; AMPylated BiP; not shown: GST, N-terminal, cleaved; AviTag, N-terminal, kept
T2 sequence (G3I8R9 19-654 V461F): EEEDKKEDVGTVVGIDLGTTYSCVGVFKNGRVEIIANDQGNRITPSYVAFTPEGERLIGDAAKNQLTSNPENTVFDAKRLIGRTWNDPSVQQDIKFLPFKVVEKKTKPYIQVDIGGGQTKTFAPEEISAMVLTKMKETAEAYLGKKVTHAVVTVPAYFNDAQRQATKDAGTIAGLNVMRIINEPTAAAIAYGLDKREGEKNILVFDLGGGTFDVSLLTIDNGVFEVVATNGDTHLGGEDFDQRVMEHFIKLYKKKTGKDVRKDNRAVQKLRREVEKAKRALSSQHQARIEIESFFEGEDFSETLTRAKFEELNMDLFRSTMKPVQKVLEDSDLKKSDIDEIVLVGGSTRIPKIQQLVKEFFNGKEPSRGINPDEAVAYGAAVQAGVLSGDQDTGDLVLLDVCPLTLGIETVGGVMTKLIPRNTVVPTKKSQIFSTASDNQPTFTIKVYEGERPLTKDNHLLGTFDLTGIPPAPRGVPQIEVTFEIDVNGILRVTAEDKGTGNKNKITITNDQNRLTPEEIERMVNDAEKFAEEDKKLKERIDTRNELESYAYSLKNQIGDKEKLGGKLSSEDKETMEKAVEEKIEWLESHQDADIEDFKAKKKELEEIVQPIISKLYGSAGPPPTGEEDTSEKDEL

[3] = biological target: T3, biotinylated AviTag-FICD(104-458)^H363A (human, UniProt Q9BVA6 104-458, H363A, biotin on the AviTag); test: BLI; dimer dissociation: biotinylated AviTag-FICD(104-458)^H363A (3 nM) pre-incubated with FICD^H363A (300 nM), loaded on streptavidin biosensors; dissociation by infinite dilution into HKTx buffer ± nucleotide at 5 mM, 30 °C; mono-exponential fit; details: both partners purified
T3 construct: human FICD (HYPE), aa 104-458; Expression, purification and biotinylation of this construct are not described; also called N-terminally biotinylated FICD^H363A; UK 2422; not shown: AviTag, N-terminal, kept
T3 sequence (looked up): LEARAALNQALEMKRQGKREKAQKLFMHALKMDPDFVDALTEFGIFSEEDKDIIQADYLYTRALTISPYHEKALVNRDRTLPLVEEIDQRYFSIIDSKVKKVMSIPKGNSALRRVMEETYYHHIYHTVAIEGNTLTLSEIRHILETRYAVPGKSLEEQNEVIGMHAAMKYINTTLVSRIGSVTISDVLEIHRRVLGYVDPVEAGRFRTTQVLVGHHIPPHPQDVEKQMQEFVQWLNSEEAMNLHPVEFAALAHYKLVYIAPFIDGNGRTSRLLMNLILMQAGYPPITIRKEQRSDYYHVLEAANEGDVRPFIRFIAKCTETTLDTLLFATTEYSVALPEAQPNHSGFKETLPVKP

[4] = biological target: the molecule itself; test: SEC; analytical SEC, SEC-3 HPLC column, HKMC buffer (50 mM HEPES-KOH pH 7.4, 150 mM KCl, 10 mM MgCl2, 1 mM CaCl2), 25 °C; FICD at 20 µM, or 0.2-50 µM after 16 h at 25 °C (Figure S1D-E); approximate Kd of dimer to monomers from elution peak times

binding result [1]: binds | binding result [2]: binds | fold increase in the dimer off rate with ATP (5 mM) against no nucleotide [3]: 3 fold
B1: FICD^H363A (aa 104-445) (domain or fragment, human, UniProt Q9BVA6 104-445, looked up)
chain: LEARAALNQALEMKRQGKREKAQKLFMHALKMDPDFVDALTEFGIFSEEDKDIIQADYLYTRALTISPYHEKALVNRDRTLPLVEEIDQRYFSIIDSKVKKVMSIPKGNSALRRVMEETYYHHIYHTVAIEGNTLTLSEIRHILETRYAVPGKSLEEQNEVIGMHAAMKYINTTLVSRIGSVTISDVLEIHRRVLGYVDPVEAGRFRTTQVLVGHHIPPHPQDVEKQMQEFVQWLNSEEAMNLHPVEFAALAHYKLVYIAPFIDGNGRTSRLLMNLILMQAGYPPITIRKEQRSDYYHVLEAANEGDVRPFIRFIAKCTETTLDTLLFATTEYSVALPEAQP
notes: human FICD (HYPE), aa 104-445; also called dFICD^H363A; source: E. coli T7 Express lysY/I^q, purified (Ni-NTA, on-column Ulp1 cleavage, anion exchange, SEC); not shown: His6, N-terminal, cleaved; Smt3, N-terminal, cleaved

B2: FICD^K256S (aa 104-445) (domain or fragment, human, UniProt Q9BVA6 104-445, looked up)
chain: LEARAALNQALEMKRQGKREKAQKLFMHALKMDPDFVDALTEFGIFSEEDKDIIQADYLYTRALTISPYHEKALVNRDRTLPLVEEIDQRYFSIIDSKVKKVMSIPKGNSALRRVMEETYYHHIYHTVAIEGNTLTLSEIRHILETRYAVPGSSLEEQNEVIGMHAAMKYINTTLVSRIGSVTISDVLEIHRRVLGYVDPVEAGRFRTTQVLVGHHIPPHPQDVEKQMQEFVQWLNSEEAMNLHPVEFAALAHYKLVYIHPFIDGNGRTSRLLMNLILMQAGYPPITIRKEQRSDYYHVLEAANEGDVRPFIRFIAKCTETTLDTLLFATTEYSVALPEAQP
notes: human FICD (HYPE), aa 104-445; also called Lys256Ser; dimer relay mutant; source: E. coli T7 Express lysY/I^q, purified (Ni-NTA, on-column Ulp1 cleavage, anion exchange, SEC); not shown: His6, N-terminal, cleaved; Smt3, N-terminal, cleaved
Kd [4]: < 400 nM

B3: non-oxidised FICD^A252C-C421S (aa 104-445) (domain or fragment, human, UniProt Q9BVA6 104-445, looked up)
chain: LEARAALNQALEMKRQGKREKAQKLFMHALKMDPDFVDALTEFGIFSEEDKDIIQADYLYTRALTISPYHEKALVNRDRTLPLVEEIDQRYFSIIDSKVKKVMSIPKGNSALRRVMEETYYHHIYHTVAIEGNTLTLSEIRHILETRYCVPGKSLEEQNEVIGMHAAMKYINTTLVSRIGSVTISDVLEIHRRVLGYVDPVEAGRFRTTQVLVGHHIPPHPQDVEKQMQEFVQWLNSEEAMNLHPVEFAALAHYKLVYIHPFIDGNGRTSRLLMNLILMQAGYPPITIRKEQRSDYYHVLEAANEGDVRPFIRFIAKSTETTLDTLLFATTEYSVALPEAQP
notes: human FICD (HYPE), aa 104-445; also called non-disulphide-bonded FICD^A252C-C421S; UK 2219; source: E. coli, purified; separate preparation not subjected to oxidation with glutathione; not shown: His6, N-terminal, cleaved; Smt3, N-terminal, cleaved
binding result [4]: binds

B4: wild-type FICD (aa 104-445) (domain or fragment, human, UniProt Q9BVA6 104-445, looked up)
chain: LEARAALNQALEMKRQGKREKAQKLFMHALKMDPDFVDALTEFGIFSEEDKDIIQADYLYTRALTISPYHEKALVNRDRTLPLVEEIDQRYFSIIDSKVKKVMSIPKGNSALRRVMEETYYHHIYHTVAIEGNTLTLSEIRHILETRYAVPGKSLEEQNEVIGMHAAMKYINTTLVSRIGSVTISDVLEIHRRVLGYVDPVEAGRFRTTQVLVGHHIPPHPQDVEKQMQEFVQWLNSEEAMNLHPVEFAALAHYKLVYIHPFIDGNGRTSRLLMNLILMQAGYPPITIRKEQRSDYYHVLEAANEGDVRPFIRFIAKCTETTLDTLLFATTEYSVALPEAQP
notes: human FICD (HYPE), aa 104-445; Dimer by SEC, AUC and crystal structure; also called HYPE; dFICD; source: E. coli T7 Express lysY/I^q, purified (Ni-NTA, on-column Ulp1 cleavage, anion exchange, SEC); not shown: His6, N-terminal, cleaved; Smt3, N-terminal, cleaved
binding result [4]: binds

B5: FICD^C421S (aa 104-445) (domain or fragment, human, UniProt Q9BVA6 104-445, looked up)
chain: LEARAALNQALEMKRQGKREKAQKLFMHALKMDPDFVDALTEFGIFSEEDKDIIQADYLYTRALTISPYHEKALVNRDRTLPLVEEIDQRYFSIIDSKVKKVMSIPKGNSALRRVMEETYYHHIYHTVAIEGNTLTLSEIRHILETRYAVPGKSLEEQNEVIGMHAAMKYINTTLVSRIGSVTISDVLEIHRRVLGYVDPVEAGRFRTTQVLVGHHIPPHPQDVEKQMQEFVQWLNSEEAMNLHPVEFAALAHYKLVYIHPFIDGNGRTSRLLMNLILMQAGYPPITIRKEQRSDYYHVLEAANEGDVRPFIRFIAKSTETTLDTLLFATTEYSVALPEAQP
notes: human FICD (HYPE), aa 104-445; also called cysteine-free FICD^C421S; UK 2161; source: E. coli, purified by the protocol of the disulphide-linked dimers (Ni-NTA, oxidised glutathione, anion exchange, SEC); not shown: His6, N-terminal, cleaved; Smt3, N-terminal, cleaved
binding result [4]: binds

Source: publication doi:10.1101/595835, “An oligomeric state-dependent switch in FICD regulates AMPylation and deAMPylation of the chaperone BiP” (bioRxiv, 2019)
